Residue numbers refer to the chain shown, from its start. In names and notes the source's numbering stands. Some results are limits rather than exact numbers.

First the molecules themselves.
T1: Y259G (limits assumed)
T1 construct: not in the list MOLECULES; also called human CD117 D1-2-3 variant Y259G
T1 extracellular domains 1, 2 and 3: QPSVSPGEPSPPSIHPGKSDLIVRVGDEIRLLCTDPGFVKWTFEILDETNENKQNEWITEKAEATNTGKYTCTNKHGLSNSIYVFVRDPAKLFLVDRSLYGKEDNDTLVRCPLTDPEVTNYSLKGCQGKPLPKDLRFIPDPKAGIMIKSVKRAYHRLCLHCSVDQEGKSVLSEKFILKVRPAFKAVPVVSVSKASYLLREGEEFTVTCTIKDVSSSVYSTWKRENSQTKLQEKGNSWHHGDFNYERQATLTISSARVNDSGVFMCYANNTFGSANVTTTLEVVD

B1: V120P (receptor)
extracellular domains 1, 2 and 3: T1 extracellular domains 1, 2 and 3 with V95P, G234Y
notes: not in the list MOLECULES; also called human CD117 D1-2-3 variant V120P
B2: S261V (receptor)
extracellular domains 1, 2 and 3: T1 extracellular domains 1, 2 and 3 with G234Y, S236V
notes: not in the list MOLECULES; also called human CD117 D1-2-3 variant S261V
B3: Refmab #3 (antibody, V domains shown)
VH: EVQLVQSGAEVKKPGESLKISCKGSGYSFTNYWIGWVRQMPGKGLEWMAIINPRDSDTRYRPSFQGQVTISADKSISTAYLQWSSLKASDTAMYYCARHGRGYEGYEGAFDIWGQGTLVTVSS
VL: DIQMTQSPSSLSASVGDRVTITCRSSQGIRSDLGWYQQKPGKAPKLLIYDASNLETGVPSRFSGSGSGTDFTLTISSLQPEDFATYYCQQANGFPLTFGGGTKVEIK
B4: Refmab #3 Fab fragment (Fab, V domains shown)
VH: B3 VH
VL: B3 VL

Data set [1] has as its target T2, Biotinylated Avitag-hSCF (human, UniProt P21583 26-190, limits assumed, biotinylated Avitag).
T2 construct: Bought reagent; also called hSCF (Acros Biosystems SCF-H82E1)
Nature of the data set: BLI (Octet), steady state: biotinylated SCF on streptavidin biosensor, CD117 D1-2-3 variant as analyte; KD relative to WT.
Description: (§1) Domains 4 and 5 were used as a negative, non-binding control.
(§2) Association was monitored for 300 s and dissociation for 600 s. […] Reference subtraction was performed against buffer only wells. Biosensors were not regenerated and a new set of SA biosensors was used for each analyte. Data were analyzed using the Octet Data Analysis software HT 12.0. Steady state data analysis was performed due to the fast on/off nature of the interaction.

A short description of data set [2]: Melting temperature of CD117 variants by differential scanning fluorimetry. The data set is classed as physicochemical. To be noted: Sypro Orange, PBS, 25 to 95° C. Here is the method: Biophysical properties of the elected variants were tested. Aggregation of the elected CD117 variants was determined by preparative size exclusion chromatography. Yield of the elected CD117 variants was determined by dividing the amount of protein after purification by the production volume. Melting temperature was measured by differential scanning fluorimetry using Sypro Orange (Sigma, PN: S5692-50 ul) and an RT-PCR machine (C1000 Thermal Cycler, Biorad). The samples were measured at 0.25-1.0 mg/ml in PBS buffer in duplicates and Sypro Orange was added at a final concentration of 5×. […] The fluorescent increase was monitored as a function of temperature and the melting temperature was determined as the inflexion point of the sigmoidal curve and compared to wild-type CD117. Results are shown in FIGS. 4 (aggregation), 5 (yield) and 6 (melting temperature).

The next data set has as its system Refmab #3. Description: Octet: binding of CD117 variants to Refmab #3. The note with it: qualitative Octet analysis. Here is the method: A more sophisticated analysis of binding to the elected variants was performed with antibody Refmab #1. Binding of Refmab #1 to wt and variants (analyte) was measured in an Octet system RED96e or R8 at 25° C. with shaking at 1,000 rpm using 1× kinetic buffer (Sartorius, PN: 18-1105). First, the elected variants were screened for their ability to bind Refmab #1 using three different concentrations of analytes. Antibody Refmab #1 was captured by Anti-Human Fc capture biosensor (AHC) (Sartorius, PN: 18-5060) for 300 s at 0.5 to 1 μg/mL. As an analyte, human CD117 wt and variants, containing only domains 1, 2 and 3 (CD117 D1-2-3), was titrated at 500 nM, 50 nM and 5 nM. Association and dissociation of the analyte to Refmab #1 was monitored for 300 s and 900 s, respectively. Reference subtraction was performed against buffer only wells. AHC tips were regenerated using 10 mM Gly-HCl pH 1.7. Data were analyzed using the Octet Data Analysis software HT 12.0. Data were fitted (when possible) to a 1:1 binding model. Kinetic rates ka and […] globally fitted. Binding level of the elected variants were compared to wild type and are shown as percent in FIG. 7. For this qualitative analysis, the binding level of the top analyte concentration at end of the association step was used.
A similar experiment to that in Example 7 was performed, but utilizing Refmab's #2 and #3.

Data set [3] has as its target T2, Biotinylated Avitag-hSCF. Description: BLI (Octet), steady state: biotinylated SCF on streptavidin biosensor, CD117 D1-2-3 variant as analyte.
Description: as §1, §2
Data set [4] concerns the target T3, human CD117 D1-2-3 variant S261E (human, UniProt P10721 26-311, limits assumed).
T3 construct: Recombinant purified
Nature of the data set: BLI (Octet) as in Example 7, CD117 variant as analyte; affinity class as drawn.

Data set [5] addresses T4, human CD117 D1-2-3 variant S261Q (human, UniProt P10721 26-311, limits assumed).
T4 construct: Recombinant purified
The data set is described as above.

Data set [6] deals with human CD117 D1-2-3 variant Y259E (human, UniProt P10721 26-311, limits assumed). Description: BLI (Octet) as in Example 7, CD117 variant as analyte; affinity class as drawn, classes defined by the key on the sheet.
Description: (§3) As an analyte, human CD117 wt and variants, containing only domains 1, 2 and 3 (CD117 D1-2-3), was titrated at 500 nM, 50 nM and 5 nM. […] Reference subtraction was performed against buffer only wells. AHC tips were regenerated using 10 mM Gly-HCl pH 1.7. Data were analyzed using the Octet Data Analysis software HT 12.0. Data were fitted (when possible) to a 1:1 binding model. Kinetic rates ka and ka were globally fitted. […] For this qualitative analysis, the binding level of the top analyte concentration at end of the association step was used.
The target in a further data set is T1, Y259G. The description is as above.
The data set “S261V” deals with B2. Described as above.
Description: as §3
Data set [7] addresses human CD117 D1-2-3 variant Y259A (human, UniProt P10721 26-311, limits assumed). The description is as above.
Description: as §3
Data set [8] addresses human CD117 D1-2-3 variant Y259P (human, UniProt P10721 26-311, limits assumed). The data set is described as above.
Description: as §3
In the next data set the target is T5, CD117 D1-2-3 wt (human, UniProt P10721 26-311, limits assumed).
T5 construct: also called human CD117 wt containing only domains 1, 2 and 3; wild type CD117 (recombinant purified)
Nature of the data set: BLI (Octet) as in Example 7, CD117 as analyte; affinity class as drawn, classes defined by the key on the sheet.

The target of data set [9] is T6, human wild-type CD117 (human, UniProt P10721 26-976).
T6 construct: also called wt CD117; KIT
Description: flow cytometry, HEK-293T with wt CD117 vs vector alone, IgG at 0.063 µg/mL.
Description: Binding of the antibodies to the transfected cells and the optimal assay conditions were evaluated in 384-well format. Detection of cellular expression was measured via high-throughput flow cytometry. Serial dilutions of each antibody were tested for immunoreactivity against cells expressing CD117 or vector alone. The optimal screening concentration for each antibody was determined based on the raw signal values and signal-to-background calculations. Each point represents the mean of four replicates.

For data set [10], the target named is T6, human wild-type CD117. Nature of the data set: flow cytometry, HEK-293T with wt CD117 vs vector alone, Fab at 0.50 µg/mL.

T2 sequence (P21583 26-190 limits assumed): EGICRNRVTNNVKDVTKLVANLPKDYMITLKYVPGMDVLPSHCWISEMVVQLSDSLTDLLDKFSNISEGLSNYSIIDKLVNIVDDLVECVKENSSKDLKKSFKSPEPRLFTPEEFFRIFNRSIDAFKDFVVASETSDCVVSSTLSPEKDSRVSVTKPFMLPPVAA
Description for Y259G: as §3

Take B1: the binding result in the data set with Biotinylated Avitag-hSCF [1] is reported as “binds”. Besides, in [2], the melting temperature result is on record as “two melting points were measured”.

With B2, the “binding to Refmab #3 compared to wild type CD117” value with Refmab #3 is on record as “strong decrease in binding”. Besides, in the data set with Biotinylated Avitag-hSCF [3], the binding result was “no binding (tested: 1000 nM (not on the sheet))”.

Take B3: the binding result in data set [4] and in [5] was “no binding (tested: not shown on the sheet)” in each case. The Kd in data set [6] was less than 5 nM; in the data set with Y259G it was greater than 50 nM; with S261V it was greater than 50 nM; in [7] it was greater than 50 nM; in data set [8] it was greater than 50 nM; with CD117 D1-2-3 wt, less than 5 nM. The “Signal:Background” value in the data set with human wild-type CD117 [9] is 8 ratio to background.

Turning to B4, the “Signal:Background” value with human wild-type CD117 [10] is 6 ratio to background.

For the origin of these results see patent US20250057951A1, “DISCERNIBLE CELL SURFACE PROTEIN VARIANTS OF CD117 FOR USE IN CELL THERAPY” (UNIVERSITÄT BASEL, priority 2021, published 2025).
